Experimental data: paper PMC12657218, “The Panoptes system uses decoy cyclic nucleotides to defend against phage” (Nature, 2025)

Experiments:
[1] = target: OptS from Klebsiella pneumoniae KP67 (minimal CRISPR polymerase, mCpol) (Klebsiella pneumoniae KP67); assay: crystal structure; apo KpOptS, 1.75 Å, four copies in the asymmetric unit; crystals from 8% PEG 4000, hanging drop, room temperature
[2] = target: OptS from Klebsiella pneumoniae KP67 (minimal CRISPR polymerase, mCpol) (Klebsiella pneumoniae KP67); assay: SEC; HiLoad 16/600 Superdex 200 pg, 20 mM HEPES pH 7.5, 250 mM KCl, 1 mM TCEP-KOH; elution volume compared with molecular weight standards
[3] = target: OptS from Klebsiella pneumoniae KP67 (minimal CRISPR polymerase, mCpol) (Klebsiella pneumoniae KP67); assay: mass photometry; KpOptS at 50 nM in 20 mM HEPES pH 7.5, 250 mM KCl, room temperature; β-amylase as calibration standard
[4] = target: T1, VnOptS (Vibrio navarrensis, UniProt A0A099LXT1); type: biochemical; conditions: MnCl2 1 mM, MgSO4 10 mM, 20 mM HEPES-KOH pH 7.4, 100 mM NaCl; with ATP, GTP, UTP, CTP; from ATP and GTP
T1 construct: gene EA26_14275; N-terminal His6 tag with or without hSUMO2; expressed in E. coli

[5] = target: T2, Acb2 (Tequatrovirus T4, UniProt P13314); assay: isothermal titration calorimetry; type: binding; conditions: read-out: apparent Kd
T2 construct: full-length, N-terminal 6xHis-hSUMO2 tag cleaved with hSENP2; expressed in E. coli
T2 sequence (P13314 1-88): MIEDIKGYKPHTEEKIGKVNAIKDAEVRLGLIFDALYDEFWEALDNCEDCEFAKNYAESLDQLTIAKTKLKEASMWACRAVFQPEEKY

## OptS from Klebsiella pneumoniae KP67 (minimal CRISPR polymerase, mCpol) (enzyme)
[1]
  stoichiometry N: 4
[2]
  stoichiometry N: > 2
[3]
  stoichiometry N: 4

## Nc1nc2c(ncn2[C@@H]2O[C@@H]3COP(=O)(O)O[C@@H]4[C@H](O)[C@@H](COP(=O)(O)O[C@H]3[C@H]2O)O[C@H]4n2cnc3c(N)ncnc32)c(=O)[nH]1 [3′,2′-cGAMP]
[4]
  HPLC and MS of products: The most abundant product of the in vitro reactions was a linkage isomer of cyclic GMP-AMP

## Nc1ncnc2c1ncn2[C@@H]1O[C@@H]2COP(=O)(O)O[C@@H]3[C@H](O)[C@@H](COP(=O)(O)O[C@H]2[C@H]1O)O[C@H]3n1cnc2c(N)ncnc21 [2′,3′-c-di-AMP]
[5]
  Kd: ~62 nM
